Results as given in patent US10464978B2, “Peptides and combination of peptides for use in immunotherapy against ovarian cancer and other cancers” (immatics biotechnologies GmbH, priority 2015, dated 2019).

biological target: HLA-A*02:01 (Homo sapiens, UniProt P04439, D140Y/D185E/D98H/E176V/E277Q/G131W/G231S/I119V/I121R/I166T/I218V/L300P/L318F/N151K/N90K/P208A/P217A/Q86G/Q94H/R138H/R169H/T345S); assay: MHC binding assay: UV-ligand exchange with beta2m ELISA (peptide exchange yield); details: binding to HLA-A*02:01
From the text: Candidate peptides for T cell based therapies according to the present invention were further tested for their MHC binding capacity (affinity). The individual peptide-MHC complexes were produced by UV-ligand exchange, where a UV-sensitive peptide is cleaved upon UV-irradiation, and exchanged with the peptide of interest as analyzed. Only peptide candidates that can effectively bind and stabilize the peptide-receptive MHC molecules prevent dissociation of the MHC complexes. To determine the yield of the exchange reaction, an ELISA was performed based on the detection of the light chain ([…]) of stabilized MHC complexes. The assay was performed as generally described in Rodenko et al. (Rodenko et al., 2006).
96 well MAXISorp plates (NUNC) were coated over night with 2 ug/ml streptavidin in PBS at room temperature, washed 4× and blocked for 1 h at 37° C. in 2% BSA containing blocking buffer. […] Peptide-MHC monomers of the UV-exchange reaction were diluted 100 fold in blocking buffer. Samples were incubated for 1h at 37° C., washed four times, incubated with 2 ug/ml HRP conjugated anti-β2m for 1h at 37° C., washed again and detected with TMB solution that is stopped with […]. Absorption was measured at 450 nm. Candidate peptides that show a high exchange yield (preferably higher than 50%, most preferred higher than 75%) are generally preferred for a generation and production of antibodies or fragments thereof, and/or T cell receptors or fragments thereof, as they show sufficient avidity to the MHC molecules and prevent dissociation of the MHC complexes.

Substance	Peptide exchange (MHC class I binding score, peptide exchange yield)
149 (NLLELFVQL; listed as Homo sapiens) [compound 149]	“+++” (≥50 = +++)
608 (SLLSVSHAL; listed as Homo sapiens) [compound 608]	“+++” (≥50 = +++)
523 (YQIPRTFTL; listed as Homo sapiens) [compound 523]	“++” (≥20% = ++)
7 (SLVGLLLYL; listed as Homo sapiens) [compound 7]	“++++” (≥75% = ++++)
97 (SLINGSFLV; listed as Homo sapiens) [compound 97]	“+++” (≥50 = +++)
67 (TLLAEALVTV; listed as Homo sapiens) [compound 67]	“+++” (≥50 = +++)
68 (SLMELPRGLFL; listed as Homo sapiens) [compound 68]	“++++” (≥75% = ++++)
70 (GLLDYPVGV; listed as Homo sapiens) [compound 70]	“+++” (≥50 = +++)
80 (FLYDNLVESL; listed as Homo sapiens) [compound 80]	“++” (≥20% = ++)
437 (SMAPGLVIQAV; listed as Homo sapiens) [compound 437]	“+++” (≥50 = +++)
304 (MTLGQIYYL; listed as Homo sapiens) [compound 304]	“+++” (≥50 = +++)
4 (GIMEHITKI; listed as Homo sapiens) [compound 4]	“++++” (≥75% = ++++)
537 (TLAPGEVLRSV; listed as Homo sapiens) [compound 537]	“+++” (≥50 = +++)
582 (TLCDVILMV; listed as Homo sapiens) [compound 582]	“+++” (≥50 = +++)
35 (KINDTIYEV; listed as Homo sapiens) [compound 35]	“+++” (≥50 = +++)
27 (ILADIVISA; listed as Homo sapiens) [compound 27]	“+++” (≥50 = +++)
180 (FQIDPHSGLVTV; listed as Homo sapiens) [compound 180]	“++” (≥20% = ++)
615 (VLPPDTDPA; listed as Homo sapiens) [compound 615]	“++” (≥20% = ++)
116 (YHIDEEVGF; listed as Homo sapiens) [compound 116]	“+” (≥10% = +)
365 (YVIDQGETDVYV; listed as Homo sapiens) [compound 365]	“+++” (≥50 = +++)
244 (SLFGGTEITI; listed as Homo sapiens) [compound 244]	“+++” (≥50 = +++)
221 (ALYEEGLLL; listed as Homo sapiens) [compound 221]	“++” (≥20% = ++)
239 (AAFAGKLLSV; listed as Homo sapiens) [compound 239]	“+++” (≥50 = +++)

Substance	Peptide exchange (MHC class I binding score, peptide exchange yield)
57 (TLAELQPPVQL; listed as Homo sapiens) [compound 57]	“+++” (≥50 = +++)
194 (ALPLFVITV; listed as Homo sapiens) [compound 194]	“+++” (≥50 = +++)
538 (LLLAHIIAL; listed as Homo sapiens) [compound 538]	“++” (≥20% = ++)
498 (KLWTGGLDNTV; listed as Homo sapiens) [compound 498]	“+++” (≥50 = +++)
178 (ALTEIAFVV; listed as Homo sapiens) [compound 178]	“++++” (≥75% = ++++)
515 (LLQELVLFL; listed as Homo sapiens) [compound 515]	“+++” (≥50 = +++)
607 (RLYSGISGLEL; listed as Homo sapiens) [compound 607]	“+++” (≥50 = +++)
584 (ALAEVAAMENV; listed as Homo sapiens) [compound 584]	“+++” (≥50 = +++)
442 (GLLGGGGVLGV; listed as Homo sapiens) [compound 442]	“+++” (≥50 = +++)
600 (ALAAPDIVPAL; listed as Homo sapiens) [compound 600]	“+++” (≥50 = +++)
326 (FLPEALDFV; listed as Homo sapiens) [compound 326]	“+++” (≥50 = +++)
24 (SLSDGLEEV; listed as Homo sapiens) [compound 24]	“++” (≥20% = ++)
228 (AMQEYIAVV; listed as Homo sapiens) [compound 228]	“++” (≥20% = ++)
238 (YLISFQTHI; listed as Homo sapiens) [compound 238]	“+++” (≥50 = +++)
56 (KLYEGIPVLL; listed as Homo sapiens) [compound 56]	“++++” (≥75% = ++++)
36 (YVLEDLEVTV; listed as Homo sapiens) [compound 36]	“++” (≥20% = ++)
144 (YIMEPSIFNTL; listed as Homo sapiens) [compound 144]	“+++” (≥50 = +++)
287 (FLNEFFLNV; listed as Homo sapiens) [compound 287]	“+++” (≥50 = +++)
447 (QLVPALAKV; listed as Homo sapiens) [compound 447]	“++” (≥20% = ++)
561 (YLQLTQSEL; listed as Homo sapiens) [compound 561]	“+++” (≥50 = +++)
621 (VLMDRLPSLL; listed as Homo sapiens) [compound 621]	“++++” (≥75% = ++++)
618 (VLFDSESIGIYV; listed as Homo sapiens) [compound 618]	“+++” (≥50 = +++)
587 (VMNDRLYAI; listed as Homo sapiens) [compound 587]	“+++” (≥50 = +++)
